Results reported in patent US20190382490A1.

Experiments:
Assay in all cases: Fc receptor binding, method not stated
CD64 (FcγRIa) (human) = CD64 (FcγRIa) (human) (UniProt P12314)
[1] = target: CD32-R131 (FcγRIIa) (human) (UniProt P12318)
[2] = target: CD16-V158 (FcγRIIIa) (human) (UniProt P08637)
[3] = target: CD32-H131 (FcγRIIa) (human) (UniProt P12318)

UniProt P12314, sequence (P12314 16-288 limits assumed): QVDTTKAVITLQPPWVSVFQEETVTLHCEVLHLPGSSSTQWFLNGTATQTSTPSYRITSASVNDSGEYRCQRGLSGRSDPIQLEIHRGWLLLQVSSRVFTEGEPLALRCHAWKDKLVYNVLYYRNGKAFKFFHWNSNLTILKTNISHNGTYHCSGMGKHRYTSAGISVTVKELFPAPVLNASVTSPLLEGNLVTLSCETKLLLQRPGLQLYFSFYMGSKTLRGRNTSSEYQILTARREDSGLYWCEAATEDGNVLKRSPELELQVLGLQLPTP
UniProt P08637, sequence (P08637 17-208 F176V limits assumed): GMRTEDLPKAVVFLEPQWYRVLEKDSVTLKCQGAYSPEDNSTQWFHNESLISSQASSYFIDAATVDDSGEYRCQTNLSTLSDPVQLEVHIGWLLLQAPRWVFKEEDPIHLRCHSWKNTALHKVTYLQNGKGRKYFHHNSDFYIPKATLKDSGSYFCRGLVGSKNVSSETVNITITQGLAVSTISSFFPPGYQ

Kd (CD64 (FcγRIa) (human)): 0.2 nM
Kd [1]: 960 nM
Kd [2]: 97 nM
Kd [3]: 530 nM
Substance: IgG1f antibody (fucosylated, otherwise unmodified human IgG1f Fc region)
